Literature values in paper PMC8441013.

Biological target: neuromedin B (Homo sapiens) (UniProt P08949)
Chain of UniProt P08949 (P08949 whole entry, looked up): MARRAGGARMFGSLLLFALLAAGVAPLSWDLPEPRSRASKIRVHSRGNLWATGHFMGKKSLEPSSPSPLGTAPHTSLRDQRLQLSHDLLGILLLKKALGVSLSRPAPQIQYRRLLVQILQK

## NMBR (from UniProt P28336)
  Kd: 5 nM
